Data on one molecule can be found in article doi:10.1101/2020.04.20.049213 (bioRxiv, 2020).

This test deals with T1, JARID2 (aa 1-450) (human, UniProt Q92833 1-450, K116me3 (trimethyl-lysine at 116)).
T1 sequence: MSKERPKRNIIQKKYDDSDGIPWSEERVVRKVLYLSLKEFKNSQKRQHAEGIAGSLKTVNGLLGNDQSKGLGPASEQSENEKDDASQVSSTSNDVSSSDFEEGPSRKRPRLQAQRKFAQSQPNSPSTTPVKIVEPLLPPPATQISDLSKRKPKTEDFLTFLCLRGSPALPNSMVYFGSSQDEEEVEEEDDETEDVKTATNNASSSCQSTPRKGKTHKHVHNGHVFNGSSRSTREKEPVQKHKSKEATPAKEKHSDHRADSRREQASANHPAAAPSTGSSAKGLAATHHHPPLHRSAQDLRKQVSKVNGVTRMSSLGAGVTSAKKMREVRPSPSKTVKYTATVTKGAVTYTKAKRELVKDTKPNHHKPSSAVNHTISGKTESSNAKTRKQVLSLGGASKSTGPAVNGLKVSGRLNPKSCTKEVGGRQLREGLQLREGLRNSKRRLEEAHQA
The test is described as follows: cryo-EM structure.

B1: EED (aa 80-441) (domain or fragment)
chain: not shown
For the molecule B1, the binding result is “binds”.
